Laboratory results taken from publication PMC11260122.

T1: PTK7 (His tag) (UniProt Q13308 31-704)
T1 sequence: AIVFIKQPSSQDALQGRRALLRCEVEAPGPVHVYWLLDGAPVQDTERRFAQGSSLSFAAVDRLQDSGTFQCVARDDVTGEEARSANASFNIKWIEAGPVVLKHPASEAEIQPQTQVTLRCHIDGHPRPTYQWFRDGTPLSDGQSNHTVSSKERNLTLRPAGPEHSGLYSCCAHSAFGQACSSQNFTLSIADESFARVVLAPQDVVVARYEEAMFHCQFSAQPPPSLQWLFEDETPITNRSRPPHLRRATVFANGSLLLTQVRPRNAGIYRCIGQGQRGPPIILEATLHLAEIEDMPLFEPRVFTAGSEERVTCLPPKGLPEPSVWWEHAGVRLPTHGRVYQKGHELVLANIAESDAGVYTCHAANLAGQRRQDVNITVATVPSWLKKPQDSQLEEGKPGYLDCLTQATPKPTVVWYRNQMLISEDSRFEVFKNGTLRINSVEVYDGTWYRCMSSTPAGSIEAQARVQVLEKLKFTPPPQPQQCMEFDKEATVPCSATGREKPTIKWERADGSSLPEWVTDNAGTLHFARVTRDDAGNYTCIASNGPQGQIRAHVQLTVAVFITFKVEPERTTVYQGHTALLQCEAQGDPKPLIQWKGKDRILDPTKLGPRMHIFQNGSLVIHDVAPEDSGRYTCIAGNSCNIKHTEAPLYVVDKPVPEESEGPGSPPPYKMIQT


target: T1, PTK7 (His tag); test: SPR

Binding result, no binding:
ATCTAACTTCTGAGCCGCCGGGAAAATACTGTACGGTTAGA (structured_DNA) [G9T·C13A]
ATCTAACTGGTCCGCCGCCGGGAAAATACTGTACGGTTAGA (structured_DNA) [C10G·G12C]
ATCTAACTGTTACGCCGCCGGGAAAATACTGTACGGTTAGA (structured_DNA) [C10T·G12A]
ATCTAACTGATTCGCCGCCGGGAAAATACTGTACGGTTAGA (structured_DNA) [C10A·G12T]
ATCTAACTACTGTGCCGCCGGGAAAATACTGTACGGTTAGA (structured_DNA) [G9A·C13T]
ATCTAACTCCTGGGCCGCCGGGAAAATACTGTACGGTTAGA (structured_DNA) [G9C·C13G]
